Measured values taken from the nanobody polyreactivity screen of Harvey et al. (2022).

Test: yeast display, Sf9 membrane polyspecificity reagent, FACS + sequencing; frameworks hold sequencing errors
In short: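 Sorting gates, low and high (top ~1%), were placed on anti-HA fluorescence to track expression and on streptavidin fluorescence to track reagent binding. A clone's polyreactivity label is taken from the gate it came out of. The reagent was 10% biotinylated, detergent-solubilized Sf9 membrane, applied for 1 hour at 4 °C to galactose-induced yeast display cells.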

Sequence	polyreactivity (PSR sort gate)
QVQLVETGACLVQAGGSLRLSCAASGLTFFGYTMGRYRQAHGKEREFVADITWSGGSTYYADSVKGRFTISRDNAKNTVYLQMNSLKPEDTAVYYCAVAPPNWDPFVDDTYLMDYWGQGTQVTVSS	low polyreactivity
QVQLVESGGGLVQAGGSLRLSCAASGLTFRRYGMGWYRQAPGKERELVASISSRGGNTYYADSVKGRFTISRDNAKNTVYLQMNSLKPEDTAVYYCATGVSTRYEYWGQGTQVTVSS	high polyreactivity
HYHLVESGGGLVQAGGSLRLSCAASAFTFVQYAMGWYRQAPGKERELVATISKSGGITYYADSVKGRFTISRDNAKNTVYLQMNSLKPEDTAVYYCAAAWYYSSRGFHATWGHDYWGQGTQVTVSS	low polyreactivity
QVQLVESGGGLVQAGGSLRLSCAASGGTFPRNAMGWYRQAPGKERELVAAISRRGGSTYYADSVKGRFTISRDNAKNTVYLQMNSLKPEDTAVYYCATVQDKTYEYGYWGQGTQVTVSS	high polyreactivity
QVQLVESGGGLVQAGASLRLSCAASGFIFAINTMGWNLQAPGKETELVAGINWRGSSKYYADSVKGRFTISRDNAKNTVYLQMNSLKPEDTAVYYCAARRFWGSDYDYWGLGTQVTVSS	high polyreactivity
QVQLVESGGGLVQAGGSLRLSCAASGFTFISKAMGWYRQAPGKERELVAAISSSGGRTYYADSVKGRFTISRDHAKYTVYLQMNSLKPEDTALYYCNADRSLLYSRKIEYDYWGQGTQVTVSS	low polyreactivity
QVQLVESGGGLVQAGGSLRLSCAASGSTFIYYAMGWYRKAPGKEREFVAAISYRGGSTYYADSVKGRFTISRDNAKNTVYLQMNSLKPEDTAVYYCAASYRKWNDYWGQGTQVTVSS	high polyreactivity
QVQLVESVGVLVQAGGSLRLSCAASGLIIDGYAMGWYRQAPGKERELVATITVSGTSTYYADSVKGRFTISRDNEKNTVYLQMNSLIPEDTAVYYCATDRNYGYYFVEYDHDYWGQGTQVTVSS	low polyreactivity
QVQLVETGGGLVQAGGSLRLSCSASRLTFVYYTMGWYRQAPGKERELVAAITSSGGSTYYADSLKGRFTISRDNAKNTVYLQMNSLKPEDTAVSYCNAYWTYEFPSYDYWGPGTQVTVSS	low polyreactivity
QVQLVESGGGLVQAGGSLRLSCAASGITFSPSAMGWCRQAPGKERELVAAITSGGSTNYADSVKGRFTISRDNAKNTVYLQMNSLKPEDTAVYYCAAGRWPAPWYTRNYWGQGTQVTVSS	low polyreactivity
QVQLVESGGGLVQAGGSLRLSCAASGSTFYPYAMGWYRPAPGKERELVAAINWSGGTTYYADSVKGRFTISRDNAKNTVYLQMNSLKPVDTAVYYCAADGYPPGYGYWGQGTQVTVSS	low polyreactivity
QVQLVESGGGLVQAGGILRLSCAASGSIFSSYGMGRYRQAPGKERELVAAITRGGGSTYYADSVKGRFTISRDNAKNTVYLQMNSLKPEDTAVYYCAARGWRYSYTSVLFDYWGQGTQVTVSS	high polyreactivity
QVQLVESGGGLVQAGGSLRLRCAASGSTFANYAMGWYRQAPGKERELVAAISVGDGSTYYADSVKGRFTISRDNAKNTVYLQMNILKPEDTAVYYCSRVRGGYDSWGQGTQVTVSS	high polyreactivity
QVQLVESGGGLVQAGGSLRLSFAASGQTFRWNAMGWYRQAPGKERELFAAISRGDRTNYADSVKGRFTISRDNAKNTVYLQMNSLNPEDTAVYYCAKTYQTNYYNGTWGVTSYGYWGQGTQVTVSS	high polyreactivity
QVQLVESGGGLVQAGGSLRLSCAASGSTFGRYTMGWYRQAPGKEREFVAAIRWSGGNTYYADSVKGRFTISRDNAKNTVYLQMNSLKPEDTAVYYCNRVYSTIGDYWGQGTQVTVSS	low polyreactivity
QVQLVDSGGGLVQAGGSLRLSCAASGFTFTPNAMGWYRQAPGTERELVAAISRRGGSTYYADSVKGRFTISRDNAKNTVYLQMNSLKPEDTAVYYCAASSSGRGGYWGQGTQVTVSS	high polyreactivity
QVQLVESGGGLVQAGGSLRLSCAASGLTFVSYVMGWYRQAPGKERELVAAISSSGGRTYYADSVKGRFTISRDNAKNTVYLQMNSLKPEDTAVYYCAVYGYHEGGYWGQGTQVTVSS	high polyreactivity
QVQLVESGGGLVQAGGSLRLSCAASGSIFGSNGMGWSRQAPGKERELVAAISSGDSTNYADSVKGRFTISRDNAKNTVYLQMNSLKPEDTAVYSCERWGLGDYWGQGTQVTVSS	low polyreactivity
QVQLVESGGGLVQAGGSLRLSCAASGRTLVRNAMGWYTQAPGKEREFVAGITESGDRTSYADSVKGRFTISRDNAKNTVYLQMNSLKPEDTAVYFCAASRPWDFYSFGFDYWGQGTQVTVSS	high polyreactivity
QVHLVESGGGLVQAGGSLRLSCAASGSTSRKYTMGWYRQAPGKERELVATISWSGGSTNYADSVKGRFTISRDNAKNTVYLQMNSLKPEETAVYYCKAYVSPRYRGSRYYYWGQGTQVTVSS	high polyreactivity
QVQLVESGGGLVQAGGSLRLSCAASGLTFGRYAMGWYRQAPGKERELVAVINGSGGNTYYADSVKGRFTISRDNAKNTVYLQMNSLKPEDTAVYYCAARRTVQYTLYYYPDYNYWGQGTQVTVSS	low polyreactivity

Sequence	polyreactivity (PSR sort gate)
QVQLVESGGGLVQAGGTLRLSCASSGRIFYHYAMGWDRQAPGKERELVAAISTHTGTTYYADSVKGRFTISRDNAKNTVYLQMNSLKPEDTAVYYCAKRSRYGYGKSYDYWGQGTQVTVST	high polyreactivity
QVQLVESGGGLVQAGGSLRLSCAASGYTFYLYAMGWYRQAPGKERELVAAISTNGGRTYYADSVKGRFTISRDNAKNTVYLQLNSLKPEDTAVYYCAVRSRGTAPQYYYWGQGTQVTVSS	high polyreactivity
QVQLVESGGGLVQAGGSLRLSCAASGSIFQRYAMGWYRQAPGKEREFVAAISGRGGSTYYADSVKGRFTISRDNAKNTVYLQMNSLKPEDTAVYSCAADSSRFYGRPRYYYWGQGTQVTVSS	high polyreactivity
QVQLVESGGGLVQAGGSLRLSCAASGRTFSANTMGWYRQAPGKERELVAAISKSGGSTYYADSVKGRFTISRDNAKNTVYLQMNSLKPEDTAVYYCAAARNVYRGRVYWGRYDYWGQGTQVTVSS	high polyreactivity
QVQLLESVGGLVQAGGSLRLSSMASGSILGDRMSWYRHAPGKEHELVATIYDGGITYYADSMKGRFTISRDNAKNTVYLQMNSLRPEDSAVYYCGASFEGYRYHVYCGQGTQVTVSS	low polyreactivity
QVQLVESGGGLVQAGGSLRLSCAASGSIFTPNAMGWYRQAPGKERELVAAISSSSDRTYYADSVKGRFTISRDNAKNTVYLQMNSLKPEDTAVYYCAAYAQKRYYWGQVTQVTVSS	high polyreactivity
QVQLVESGGGLVQAGGSLRLSCAASGSTFVYNAMGWYRQAPGKERELVAGISSSGGRTYYADSVKGRFTISRDNAKNTVYLQMNSLKPEDTAVYYCATGYRQGEYDYWGQGTQVTVSS	low polyreactivity
QVQLVESGGGLVQAGGSLRLSCAASGGIFYFNAMGWYRQAPGKERELVASITWSGGNTYYADSVKGRFTISRDNAKNTVYLQMNSLKPEDTAVYYCAADTQEYRPTYDYWGQGTQVTVSS	low polyreactivity
QVQLVESGGGLVQAGGSLRLSFAASGSTFGVNAMGWYRQAPGKERELVAVITRSGGSTYYADSVKGRFTISRDNAKNTVYLQMNSLKPEDTAVYYCGKSGVVDWGQGTQVTVSS	low polyreactivity
QVQLVESGGGLVQAGGSLRLSCAASGITFSYYAMGWYRQAPGKERELVAAINSGGGSTYYADSVKGRFTISRDNAKNTVYLQMNSLKPEDTAVYYCAARYRSRYDYYYDRDYWGQGTQVTVSS	low polyreactivity
QVQLVESGGGLVQAGGSLRLSCAASGSTFDSYAMGWYRQAPGKERELVAALSYNGSSTDYADSVKGRFTISRDNAKNTVDEQMNSLKPEDTAVYYCAAAPGFSAGHHDYWGQGTQVTVSS	low polyreactivity
QVQLVESGGGLVQAGGSLRLSCAASGRIFNEYGMGWYRQAPGKERELVAAITWGGGSTYYADSVKGRFTISRDNAKNTVYVQMNSLKPEDTAVYYCNAVSERPIPWYYYWGQGTQVTVSS	low polyreactivity
QVQRVESGGGLVQAGGSLRLSCPASGFTFSRNVMGWYRQAPGKERELVADITLSGASTYYADSVKGRFTISRDNAKNTVYLQMNSLKPEDTAVYYCAADPYHWRWGWRHDYWGQGTQVTVSS	low polyreactivity
QVQLVESGGGLVQAGGSLRLSCAASGFTFWYYAMGWYRQAPGKERELVAAITEDGDSTYYADSVKGRFTISRDNAKNTVYLQMNSLKPEDTAVYYCNTDLTFNGTSGDYDYWGQGSQVTVSS	low polyreactivity
QVQLVESGGGLVQAGGSLRLSCAASGYTFSQNAMGWYRQAPGKEREVVAGITTRGTTTYYADSVKGRFTISRDNAKNTVYLQMNSLKPEDTPVYYCAADNSYTDNYWGQGTQVTVSS	low polyreactivity
QDQLVESGGGLDQARGSLRLSCAACGSTFPRYAMGWSRQAPGKERELVAAITASGGSTYYADSVKGRFTISRDNAKNPVYLQMNSLKPEDTAVYYCATPSLYTGYDYWGQGTQVTVSS	low polyreactivity
QVQLVESGGGLVQAGGSLRLSCAASGFTFRRYAMGWYRQAPWKESELVAAITRDGITNYAASVKGRFTLSRDNAKNTVYFQMNILKPEDTAVYYCARRTGRARLDYWGQGTQVSVSS	high polyreactivity
QVQLVESGGGLVQAGGSLRLSCAASGRTFAIDAMGWYRQAPGKEREFVAAISWSGGDTYYADSVKGRFTISRDNAKNTVYFQMNRLKPEDTAVYYSAGRDNDYEGRDLQDELDYWGQGTQVTVSS	low polyreactivity
QVQLVESGGGLVQAGGSLRLSCAASGRTFRFYAMGWYRQAPGKERELVAAIRWSGGSTYYADSVKGRFTISRDNAKNTVYLQMNSLKPEDTAVYYCNADNRWPFGGWYGLDYWGQGTQVTVSS	high polyreactivity
QVQLVESGGGLVQAGGSLRLSCAASGNTFYGYAMGWYRQAPGKERELVASITLSGDSMYYADSVKGRFTISRDNAKNTVYLQMNSLIPDDTAVYYCNADWYFQYPYDYWGQGTQVSVSS	low polyreactivity
